The text below walks through data of patent publication US20110184016A1.

Experiment [1] has as its target human protease-activated receptor 2 (human) (UniProt P55085). The experiment can be described thus: cell-based or functional assay.
Experiment [2] has as its target T1, human protease-activated receptor 4 (human) (UniProt Q96RI0).
T1 sequence (looked up): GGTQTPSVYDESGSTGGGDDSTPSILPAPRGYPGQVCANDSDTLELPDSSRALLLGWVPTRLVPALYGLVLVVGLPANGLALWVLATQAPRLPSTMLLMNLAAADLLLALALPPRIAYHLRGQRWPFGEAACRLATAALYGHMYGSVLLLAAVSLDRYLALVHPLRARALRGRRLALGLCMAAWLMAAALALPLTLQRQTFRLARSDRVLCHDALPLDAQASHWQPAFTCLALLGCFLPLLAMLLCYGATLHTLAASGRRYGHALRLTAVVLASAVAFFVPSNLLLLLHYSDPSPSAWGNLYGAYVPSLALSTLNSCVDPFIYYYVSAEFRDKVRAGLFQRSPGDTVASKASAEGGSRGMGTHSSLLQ
Briefly: cell-based or functional assay.

Chain of recombinant human cathepsin S (P25774 115-331): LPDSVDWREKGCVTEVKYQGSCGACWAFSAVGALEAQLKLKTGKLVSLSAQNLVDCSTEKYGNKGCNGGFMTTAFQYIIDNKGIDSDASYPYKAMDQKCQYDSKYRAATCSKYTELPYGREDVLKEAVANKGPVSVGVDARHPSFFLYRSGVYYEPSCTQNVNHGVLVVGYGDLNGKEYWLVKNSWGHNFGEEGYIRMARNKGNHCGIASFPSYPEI

On to “recombinant human cathepsin S (from UniProt P25774 115-331) (enzyme)”, for which the calcium flux (ratiometric Fura-2 imaging, transfected HeLa cells) in experiment [1] and in experiment [2] was 30 nM each time.
